Read-outs that look alike come from different tables or passages of the source.
Assays:
[1] = target: T1, human SLC34A2 (human, UniProt O95436 1-690); experiment: FACS, OVCAR3 cells
T1 construct: whole, on cells; also called human solute carrier 34 A2; NaPi2b
T1 sequence (looked up): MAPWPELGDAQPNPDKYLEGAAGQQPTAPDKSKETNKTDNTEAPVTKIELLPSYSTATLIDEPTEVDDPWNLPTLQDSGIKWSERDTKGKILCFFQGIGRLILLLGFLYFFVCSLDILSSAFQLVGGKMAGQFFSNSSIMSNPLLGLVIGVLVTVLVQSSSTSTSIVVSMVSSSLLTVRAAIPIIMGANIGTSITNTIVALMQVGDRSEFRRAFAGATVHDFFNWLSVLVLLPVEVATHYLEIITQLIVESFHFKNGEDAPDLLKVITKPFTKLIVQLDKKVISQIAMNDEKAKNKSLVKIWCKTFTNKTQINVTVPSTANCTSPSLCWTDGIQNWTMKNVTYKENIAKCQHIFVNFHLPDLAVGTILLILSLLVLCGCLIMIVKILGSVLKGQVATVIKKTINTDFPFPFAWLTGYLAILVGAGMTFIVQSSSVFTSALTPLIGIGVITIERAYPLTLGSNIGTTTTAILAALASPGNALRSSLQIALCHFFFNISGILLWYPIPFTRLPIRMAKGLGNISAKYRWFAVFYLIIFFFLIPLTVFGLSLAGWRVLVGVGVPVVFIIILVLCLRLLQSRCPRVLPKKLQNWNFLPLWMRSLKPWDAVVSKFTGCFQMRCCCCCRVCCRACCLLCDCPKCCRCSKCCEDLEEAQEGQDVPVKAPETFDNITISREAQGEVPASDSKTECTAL
Experimental: The binding of these humanized antibodies to OVCAR3 cells was evaluated as described above, and the results are shown in FIG. 12A-D and Tables 16A-D.

[2] = target: T1, human SLC34A2; experiment: FACS, HEK293/human SLC34A2 cells
Experimental: The PTM-derisked VH chains were first tested for their impact on target binding. Cell based binding of PTM Abs on human SLC34A2 expressing cells were assessed using flow cytometry. Briefly, the HEK293/H_SLC34A2 cells were incubated with PTM Abs (from 200 nM, 4 folds dilution, 8 points). After incubation at 4° C. for 60 minutes, the cells were washed with FACS buffer twice, then stained with fluorescent conjugated secondary antibody at 4° C. for 30 minutes. After that the cells were washed twice and analyzed by flow cytometry.

[3] = target: T1, human SLC34A2; experiment: FACS, OVCAR3 cells; remark: listed apart in the source
[4] = target: T1, human SLC34A2; experiment: FACS, OVCAR3 cells; remark: listed apart in the source
Experimental: (§1) In another testing, cell based binding of hu Abs on human SLC34A2 expressing cells were assessed using flow cytometry. Briefly, the HEK293/H_SLC34A2, OVCAR3 and RMG-1 cells were incubated with hu Abs. After incubation at 4° C. for 60 minutes, the cells were washed with FACS buffer twice, then stained with fluorescent conjugated secondary antibody at 4° C. for 30 minutes. After that the cells were washed twice and analyzed by flow cytometry.

[5] = target: T1, human SLC34A2; experiment: FACS, HEK293/human SLC34A2 cells; remark: listed apart in the source
Experimental: as §1

[6] = target: T2, Rhesus SLC34A2 (Rhesus, UniProt F7HDA3 1-690); experiment: FACS, HEK293/Rhesus SLC34A2 cells
T2 construct: whole, on cells
T2 sequence: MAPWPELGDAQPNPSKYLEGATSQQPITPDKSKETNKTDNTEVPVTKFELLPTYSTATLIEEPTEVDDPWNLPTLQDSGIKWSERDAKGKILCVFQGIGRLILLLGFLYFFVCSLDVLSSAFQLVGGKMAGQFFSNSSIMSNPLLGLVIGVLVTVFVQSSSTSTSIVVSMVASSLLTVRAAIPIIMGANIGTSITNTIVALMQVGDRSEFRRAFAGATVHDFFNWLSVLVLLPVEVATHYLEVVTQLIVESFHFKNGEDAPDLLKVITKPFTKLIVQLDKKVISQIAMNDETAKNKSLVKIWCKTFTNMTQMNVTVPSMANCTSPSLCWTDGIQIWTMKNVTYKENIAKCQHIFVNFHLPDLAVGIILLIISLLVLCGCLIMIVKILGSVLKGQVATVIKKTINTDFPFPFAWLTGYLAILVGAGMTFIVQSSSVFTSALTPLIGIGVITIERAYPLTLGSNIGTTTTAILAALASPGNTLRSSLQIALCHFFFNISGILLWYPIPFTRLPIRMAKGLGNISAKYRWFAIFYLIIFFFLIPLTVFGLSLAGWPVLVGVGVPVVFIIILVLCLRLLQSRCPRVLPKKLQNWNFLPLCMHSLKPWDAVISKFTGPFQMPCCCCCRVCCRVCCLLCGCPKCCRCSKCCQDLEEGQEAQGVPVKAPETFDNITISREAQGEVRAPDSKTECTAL

[7] = target: T1, human SLC34A2; experiment: FACS, RMG-1 cells
Experimental: as §1

[8] = target: T2, Rhesus SLC34A2; experiment: FACS, HEK293/Rhesus SLC34A2 cells; remark: listed apart in the source
[9] = target: T1, human SLC34A2; experiment: cell-based or functional assay
[10] = target: T1, human SLC34A2; experiment: FACS, RMG-1 cells; remark: listed apart in the source
Experimental: Based on the foregoing cell-based binding results, some of the chimeric antibodies were selected for further cell based binding on human SLC34A2 expressing cells using flow cytometry. RMG-1 cells were incubated with the selected chimeric antibodies (from 200 nM, 4 folds dilution, 8 points). After incubation at 4° C. for 60 minutes, the cells were washed with FACS buffer twice, then stained with fluorescent conjugated secondary antibody at 4° C. for 30 minutes. Afterwards the cells were washed twice and analyzed by flow cytometry.

[11] = target: T3, Cynomolgus SLC34A2 (Cynomolgus, UniProt A0A2K5UHY1 1-690); experiment: FACS, cells expressing Cynomolgus SLC34A2
T3 construct: whole, on cells; also called Cyno SLC34A2
T3 sequence: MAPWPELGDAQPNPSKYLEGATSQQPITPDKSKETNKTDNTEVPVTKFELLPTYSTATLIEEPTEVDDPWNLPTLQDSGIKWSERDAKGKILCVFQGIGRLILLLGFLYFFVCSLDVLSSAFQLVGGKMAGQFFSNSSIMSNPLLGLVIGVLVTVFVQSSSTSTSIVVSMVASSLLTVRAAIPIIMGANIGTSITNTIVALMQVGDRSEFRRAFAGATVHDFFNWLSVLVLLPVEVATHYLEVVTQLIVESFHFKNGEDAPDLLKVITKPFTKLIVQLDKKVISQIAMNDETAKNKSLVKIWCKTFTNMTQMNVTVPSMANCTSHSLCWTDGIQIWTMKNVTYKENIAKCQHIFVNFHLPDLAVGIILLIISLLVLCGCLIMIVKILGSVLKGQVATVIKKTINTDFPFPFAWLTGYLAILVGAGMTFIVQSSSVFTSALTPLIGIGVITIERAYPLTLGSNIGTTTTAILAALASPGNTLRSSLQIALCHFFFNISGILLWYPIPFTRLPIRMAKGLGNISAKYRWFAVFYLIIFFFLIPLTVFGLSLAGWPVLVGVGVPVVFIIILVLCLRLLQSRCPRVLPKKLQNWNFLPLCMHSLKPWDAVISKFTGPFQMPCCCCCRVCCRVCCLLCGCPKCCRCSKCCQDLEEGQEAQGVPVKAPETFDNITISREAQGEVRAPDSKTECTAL

[12] = target: T2, Rhesus SLC34A2; experiment: FACS, HEK293/Rhesus SLC34A2 cells; remark: listed apart in the source
Experimental: (§2) Briefly, the Rhesus SLC34A2 expressing HEK293 engineering cells (HEK293/Rhesus_SLC34A2) were incubated with chimeric Abs (from 200 nM, 4 folds dilution, 8 points). After incubation at 4° C. for 60 minutes, the cells were washed with FACS buffer twice, then stained with fluorescent conjugated secondary antibody at 4° C. for 30 minutes. After that the cells were washed twice and analyzed by flow cytometry.

[13] = target: T1, human SLC34A2; experiment: cell-based or functional assay; remark: listed apart in the source
[14] = target: T1, human SLC34A2; experiment: cell-based or functional assay; remark: listed apart in the source
[15] = target: T1, human SLC34A2; experiment: FACS, HEK293/human SLC34A2 cells; remark: listed apart in the source
Experimental: as §2, with “OVCAR3 cells or HEK293 cells expressing human” for “the Rhesus”, “SLC34A2” for “SLC34A2 expressing HEK293 engineering cells (HEK293/Rhesus_SLC34A2)”, “antibodies” for “Abs”

[16] = target: T1, human SLC34A2; experiment: FACS, OVCAR3 cells; remark: listed apart in the source
Method in brief: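 Chimeric hIgG1 antibodies titrated from 200 nM (4-fold, 8 points) on OVCAR3 cells or HEK293 cells expressing human SLC34A2, 60 min at 4° C. Bound antibody detected with fluorescent secondary antibody (30 min, 4° C) and measured by flow cytometry.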

B1: 62G10E4G8 VH_P3/VL hIgG1 (antibody, V domains shown)
VH: QVQLQQSGAEVVKPGASVKMSCKASGYTFPSYITHWVKQTPGQGLEWIGAIYPGNADTSYIQKFKGKATLTADKSSSTAYMQLSSLTSEDSAVYYCARGTYGTSAWFTYWGQGTLVTVSA
VL: DIVLTQSPATLSVTPGDSVSLSCRARQNIGNNLYWYQQKSHESPRLLIKYASQSISGIPSRFSGSGSGTDFTLTINSVETEDFGVYFCQQSFSWPLTFGAGTKLELK
notes: PTM-derisked chimeric, hIgG1; that P3 is the NA version follows from the humanized .p3 chains; also called 62G10E4G8.p3 hIgG1
- EC50 [1]: 6.98 nM
- Top (MFI) [1]: 30300 MFI
- EC50 [2]: 2.73 nM
- Top (MFI) [2]: 30800 MFI
- EC50 [3]: 9.1 nM
- Top (MFI) [3]: 72500 MFI
- EC50 [4]: 6.98 nM
- EC50 [5]: 9.08 nM
- Top [5]: 35700 MFI
- EC50 [6]: 4.3 nM
- Top (MFI) [6]: 36500 MFI
- EC50 [7]: 14.8 nM
- Top [7]: 11200 MFI
- EC50 [8]: 5 nM
- Top (MFI) [8]: 14400 MFI
- ADCC reporter EC50 [9]: 4.23 nM
- ADCC reporter Top (MFI) [9]: 122000 MFI

B2: xi90G10H7 hIgG1 (antibody, V domains shown)
VH: QVQLQQPGAVLVKPGASVKMSCKASGYTFTSYIIHWVKQTPGQGLEWVGAIYPGNGDASSIQKFKGKATLTVDKSSSTAYMQLSSLTSADSAVYYCARGHYYGSAAWFAYWGQGTLVTVSA
VL: DILLTQSPAILSVSPGERVSFSCRASQNIGTGIHWYQQRTNGSLRLLIKYASESISGIPSRFSGSGSGTDFTLSINSVESEDIADYYCQQSNSWPLTFGAGTKLELK
notes: chimeric, hIgG1
- EC50 [10]: 2.77 nM
- Top (MFI) [10]: 9920 MFI
- EC50 [11]: 2.4 nM
- Top (MFI) [11]: 4560 MFI
- EC50 [2]: 1.14 nM
- Top (MFI) [2]: 32200 MFI
- EC50 [12]: 2.19 nM
- Top (MFI) [12]: 18500 MFI
- ADCC reporter EC50 [13]: 2.3 nM
- ADCC reporter Top (MFI) [13]: 397000 MFI
- cytotoxicity EC50 [14]: 0.28 nM
- cytotoxicity Inhibition % [14]: 103%
- EC50 [3]: 3.9 nM
- Top (MFI) [3]: 72900 MFI
- EC50 [6]: 3.5 nM
- Top (MFI) [6]: 47400 MFI
- EC50 [15]: 1.52 nM
- Top (MFI) [15]: 114000 MFI
- EC50 [16]: 2.14 nM
- Top (MFI) [16]: 43300 MFI

Reference: patent publication US20240301052A1 (LANOVA MEDICINES DEVELOPMENT, published 2024)
